As a reminder, the Km is the substrate concentration at which the rate is half of its maximum. In general, kcat refers to the maximal rate divided by the concentration of active sites. Broadly, the kcat/Km is the turnover number divided by the Michaelis constant.

In publication PMC8944080, “Production of indole by Corynebacterium glutamicum microbial cell factories for flavor and fragrance applications” (Microbial Cell Factories, 2022) one finds Km, kcat and kcat/Km data, which are given here for two substances.

Data set [1] relates to N[C@@H](Cc1c[nH]c2ccccc12)C(=O)O. Nature of the data set: purified protein. The following applies: 100 mM KPi pH 7.8, 30 °C, 0.05 mM pyridoxal phosphate, 1 mM DTT.
Data set [2] concerns T1, N[C@@H](Cc1c[nH]c2ccccc12)C(=O)O.
T1 construct: full length, N-terminal 6xHis tag, codon-optimised gene, pACYCDuet-1, E. coli BL21(DE3), Ni-NTA; TNAs are homotetramers
In words: purified protein. As to conditions: 100 mM KPi pH 7.8, 30 °C, 0.05 mM pyridoxal phosphate, 1 mM DTT. Type of data set: biochemical, Proteus vulgaris.

Consider EcTNA (Escherichia coli K-12), for which, in data set [1], the Michaelis-Menten constant (Km) was 140 ± 10 µM, the kcat turned out to be 1.65 s⁻¹ and the catalytic efficiency (kcat/Km) is 11800 M⁻¹ s⁻¹.
With PvTNA (Proteus vulgaris), in data set [2], the Michaelis-Menten constant (Km) was determined as 30 ± 3 µM, the turnover number (kcat) came out at 0.78 ± 0.02 s⁻¹ and the kcat/Km amounted to 26000 ± 5800 M⁻¹ s⁻¹.
